Data: patent publication US20240076315A1 (ALLIFE MEDICINE ZHUHAI, published 2024)
No end group written: not given here.

Molecular target: T1, cell surface antigen PSMA on Lncap cell line with high PSMA expression (UniProt Q04609 1-750, limits assumed)
T1 construct: whole, on cells; Lncap is a prostate cancer cell line; also called Lncap cells
Assay: immunofluorescence on Lncap cells (high PSMA expression), FITC marker
Experimental: Immunofluorescence detection was performed on KHL peptides in Lncap cell lines with high PSMA expression and PC3 cell lines with low PSMA expression, using FITC as the fluorescent marker.

T1 sequence (Q04609 whole entry): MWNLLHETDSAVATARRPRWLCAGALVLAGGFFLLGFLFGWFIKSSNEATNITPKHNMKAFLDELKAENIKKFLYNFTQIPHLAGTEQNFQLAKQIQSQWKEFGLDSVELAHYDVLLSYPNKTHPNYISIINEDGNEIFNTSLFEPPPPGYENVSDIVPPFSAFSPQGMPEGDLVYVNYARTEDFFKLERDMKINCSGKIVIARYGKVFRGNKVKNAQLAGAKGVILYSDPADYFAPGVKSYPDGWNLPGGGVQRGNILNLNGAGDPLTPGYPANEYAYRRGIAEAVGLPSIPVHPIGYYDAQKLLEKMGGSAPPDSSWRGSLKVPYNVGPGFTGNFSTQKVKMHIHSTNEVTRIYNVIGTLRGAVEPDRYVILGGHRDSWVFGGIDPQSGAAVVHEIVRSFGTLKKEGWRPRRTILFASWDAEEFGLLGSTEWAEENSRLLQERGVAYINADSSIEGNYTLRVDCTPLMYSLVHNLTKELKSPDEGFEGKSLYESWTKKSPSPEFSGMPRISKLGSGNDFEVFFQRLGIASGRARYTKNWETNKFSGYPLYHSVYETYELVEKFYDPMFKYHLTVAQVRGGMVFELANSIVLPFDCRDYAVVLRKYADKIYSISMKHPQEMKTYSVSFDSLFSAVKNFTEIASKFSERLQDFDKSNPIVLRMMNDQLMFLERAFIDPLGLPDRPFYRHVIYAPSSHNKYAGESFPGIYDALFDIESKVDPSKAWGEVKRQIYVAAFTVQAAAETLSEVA

KHLHYHSSVRYG (also: FITC label, attachment site not given here, also called KHL peptide conjugate) [KHL peptide with FITC as the fluorescent marker]
binding result: binds
